Values of other authors as cited in PMC9133541.

Molecular target: ExoS peptide (Pseudomonas aeruginosa) (UniProt G3XDA1)
Test: ITC

UniProt G3XDA1, sequence (G3XDA1 whole entry): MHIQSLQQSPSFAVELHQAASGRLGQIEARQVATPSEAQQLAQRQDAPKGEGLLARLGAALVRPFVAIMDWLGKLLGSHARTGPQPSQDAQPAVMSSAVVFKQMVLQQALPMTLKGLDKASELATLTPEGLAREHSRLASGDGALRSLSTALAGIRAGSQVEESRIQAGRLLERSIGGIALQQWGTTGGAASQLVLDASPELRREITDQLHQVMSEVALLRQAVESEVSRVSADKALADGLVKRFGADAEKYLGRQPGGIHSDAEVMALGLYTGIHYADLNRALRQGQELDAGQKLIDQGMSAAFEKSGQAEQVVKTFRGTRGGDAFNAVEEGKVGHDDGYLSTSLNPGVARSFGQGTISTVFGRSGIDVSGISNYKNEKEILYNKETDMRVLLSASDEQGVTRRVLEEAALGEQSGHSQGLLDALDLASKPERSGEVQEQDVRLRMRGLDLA

For 14-3-3 sigma (from UniProt P31947), which Kd is on record?
Its Kd is 45.6 µM.
